Test results published in US10006010B2, “Cytochrome P450 fusion protein” (The University of York, priority 2014, dated 2018).

Assays:
[1] = Enzyme assay on soluble/microsomal preparations of S. cerevisiae expressing STORR fusion or modules, substrate 1,2-dehydroreticuline; assay type: biochemical; conditions: soluble or microsomal preparations from S. cerevisiae; 100 μM substrate, 1 mM NADPH, 37° C. 3 hours
Description: (§1) Genscript created synthetic DNA sequences were created for PsCPR [Genbank accession AAC05021, (Rosco A. et al. (1997) Arch. Biochem. Biophys. 348, 369-77), the full length STORR (CYP82Y2-Oxidoreductatse (“Oxired”)) protein, the N-terminal CYP82Y2 module and C-terminal oxidoreductase (Oxidoreductase) module, that were codon optimised for expression is Saccharomyces cerevisiae. The codon-optimized sequences are provided with the SEQ ID NO 30-33.
(§2) Expression vector pESC-TRP::soloxired was created by digesting the corresponding PCR product with NotI and PacI and inserting this behind the GAL10 promoter of pESC-TRP. pESC-TRP::CPR was created by digesting the corresponding PCR product with BamHI and XhoI and inserting this behind the GAL1 promoter of pESC-TRP. This was then used to created pESC-TRP::CPR::CYP82Y2 and pESC-TRP::CPR::CYP82Y2-Oxidoreductase. These plasmids were then transformed in S. cerevisiae G175 (Sorger D. et al. (2004) J. Biol. Chem. 279, 31190-6) using lithium acetate protocol (Geitz R. D. and Woods R. A. (2002) Methods in Enzymology 350, 87-96). Yeasts were cultivated in Synthetic Defined (SD) medium composed of 2% carbon source, 0.5% ammonium sulfate, 1.7 g L^−1 yeast nitrogen base (without amino acids and ammonium sulfate) and 1.92 g L^−1 or tryptophan drop-out supplement (Sigma-Aldrich, Gillingham, UK). Cultures grown using glucose as a carbon source were used to inoculate 200 ml cultures with raffinose as a carbon source to an OD 600 nm of 0.10 in 1 L conical flasks. […]
(§3) Enzymes assays were set up in 250 μL volumes containing final concentrations of 50 mM Bis-tris propane buffer, 1 mM NADPH and 100 μM of substrate. […] The extract was then dissolved in 100 μL of 50:50:0.1 hexane/ethanol/diethylamine and analysed by the chiral HPLC method to determine the relative amounts of (R)- and (S)-reticuline.
(§4) Poppy capsules were processed and analysed by UPLC-MS and R-scripts as previously described (“the standard method”; (Winzer T. et al. (2012) Science 336, 1704-8)). […]

[2] = Enzyme assay on microsomal preparations of S. cerevisiae expressing STORR fusion or modules, substrate (S)-reticuline; assay type: biochemical
Description: as §1, §2, §3, §4

Molecule	conversion efficiency of 1,2-dehydroreticuline to (R)-reticuline [1]	accumulation of 1,2-dehydroreticuline during conversion of (S)- to (R)-reticuline ([2]; microsomal fractions harboring the fusion protein)	added (S)-reticuline converted to (R)-reticuline ([2]; microsomal preparations from S. cerevisiae, with CPR, 100 μM substrate, 37° C. 3 hours)	conversion of (S)-reticuline to 1,2-dehydroreticuline ([2]; microsomal preparations from S. cerevisiae, with CPR redox partner, 100 μM substrate, 37° C. 3 hours)
STORR fusion: Full length CYP82Y2-oxidoreductase fusion protein (SEQ ID NO 1; codon optimized SEQ ID NO 31) expressed with PsCPR in S. cerevisiae (protein, listed as Papaver somniferum, co-expressed with PsCPR) MELQYISYFQPTSSVVALLLALVSILSSVVVLRKTFLNNYSSSPASSTKTAVLSHQRQQSCALPISGLLHIFMNKNGLIHVTLGNMADKYGPIFSFPTGSHRTLVVSSWEMVKECFTGNNDTAFSNRPIPLAFKTIFYACGGIDSYGLSSVPYGKYWRELRKVCVHNLLSNQQLLKFRHLIISQVDTSFNKLYELCKNSEDNHGNYTTTTTTAAGMVRIDDWLAELSFNVIGRIVCGFQSGPKTGAPSRVEQFKEAINEASYFMSTSPVSDNVPMLGWIDQLTGLTRNMKHCGKKLDLVVESIINDHRQKRRFSRTKGGDEKDDEQDDFIDICLSIMEQPQLPGNNNPSQIPIKSIVLDMIGGGTDTTKLTTIWTLSLLLNNPHVLDKAKQEVDAHFRTKRRSTNDAAAAVVDFDDIRNLVYIQAIIKESMRLYPASPVVERLSGEDCVVGGFHVPAGTRLWANVWKMQRDPKVWDDPLVFRPDRFLSDEQKMVDVRGQNYELLPFGAGRRVCPGVSFSLDLMQLVLTRLILEFEMKSPSGKVDMTATPGLMSYKVIPLDILLTHRRIKPCVQSAASERDMESSGVPVITLGSGKVMPVLGMGTFEKVGKGSERERLAILKAIEVGYRYFDTAAAYETEEVLGEAIAEALQLGLVKSRDELFISSMLWCTDAHADRVLLALQNSLRNLKLEYVDLYMLPFPASLKPGKITMDIPEEDICRMDYRSVWAAMEECQNLGFTKSIGVSNFSCKKLQELMATANIPPAVNQVEMSPAFQQKKLREYCNANNILVSAISVLGSNGTPWGSNAVLGSEVLKKIAMAKGKSVAQVSMRWVYEQGASLVVKSFSEERLRENLNIFDWELTKEDHEKIGEIPQCRILSAYFLVSPNGPFKSQEELWDDEA	100%	no detectable accumulation	about 20%	
CYP82Y2 module: N-terminal CYP82Y2 module of STORR (codon optimized SEQ ID NO 32) expressed with opium poppy CPR redox partner in S. cerevisiae (protein, co-expressed with poppy CPR in yeast; Yeast codon optimized CYP82Y2) MELQYISYFQPTSSVVALLLALVSILSSVVVLRKTFLNNYSSSPASSTKTAVLSHQRQQSCALPISGLLHIFMNKNGLIHVTLGNMADKYGPIFSFPTGSHRTLVVSSWEMVKECFTGNNDTAFSNRPIPLAFKTIFYACGGIDSYGLSSVPYGKYWRELRKVCVHNLLSNQQLLKFRHLIISQVDTSFNKLYELCKNSEDNHGNYTTTTTTAAGMVRIDDWLAELSFNVIGRIVCGFQSGPKTGAPSRVEQFKEAINEASYFMSTSPVSDNVPMLGWIDQLTGLTRNMKHCGKKLDLVVESIINDHRQKRRFSRTKGGDEKDDEQDDFIDICLSIMEQPQLPGNNNPSQIPIKSIVLDMIGGGTDTTKLTTIWTLSLLLNNPHVLDKAKQEVDAHFRTKRRSTNDAAAAVVDFDDIRNLVYIQAIIKESMRLYPASPVVERLSGEDCVVGGFHVPAGTRLWANVWKMQRDPKVWDDPLVFRPDRFLSDEQKMVDVRGQNYELLPFGAGRRVCPGVSFSLDLMQLVLTRLILEFEMKSPSGKVDMTATPGLMSYKVIPLDILLTHRRIKPCVQSAASERD	not			~100%
